Data on six molecules can be found in publication PMC10183829 (2023).

B2: ATG8A (purified) (natural protein)
chain: MAKSSFKISNPLEARMSESSRIREKYPDRIPVIVEKAGQSDVPDIDKKKYLVPADLTVGQFVYVVRKRIKLGAEKAIFVFVKNTLPPTAALMSAIYEEHKDEDGFLYMTYSGENTFG

No end group written: not given here. TAMRA = 5(6)-carboxytetramethylrhodamine

The target of the test “ATG8A (purified)” is B2. The experiment in a line: FP.
Another test deals with GABARAP (purified) (human, UniProt O95166 3-116). The experiment in a line: ITC. For orientation: Isothermal titration calorimetry measures the heat released or taken up as one component is titrated into another.
Chain of GABARAP (purified) (O95166 3-116): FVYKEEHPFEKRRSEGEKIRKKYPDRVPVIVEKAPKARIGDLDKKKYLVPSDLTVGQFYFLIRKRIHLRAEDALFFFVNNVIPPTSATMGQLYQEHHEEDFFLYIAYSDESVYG
Another test has as its target HsUFM1 (purified) (human, UniProt P61960 1-85). The experiment in a line: ITC.
The target in the next test is cAIM mut. The experiment in a line: FP.
A further test deals with sAIM3. As to the kind of experiment: FP.

Chain of HsUFM1 (purified) (P61960 whole entry): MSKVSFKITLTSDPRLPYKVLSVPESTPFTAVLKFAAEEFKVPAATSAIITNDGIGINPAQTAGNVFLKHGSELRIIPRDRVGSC

By Kd is commonly meant a measure of binding affinity in units of concentration. Read a high Kd as lower affinity. As to {TAMRA}-AADSIDWDITVET [peptide derived from sAIM1 (AtC53 IDR)], the affinity with ATG8A (purified), expressed as Kd, was 97.6 µM.

B1: HsC53 wt (purified) (natural protein)
chain: MEDHQHVPIDIQTSKLLDWLVDRRHCSLKWQSLVLTIREKINAAIQDMPESEEIAQLLSGSYIHYFHCLRILDLLKGTEASTKNIFGRYSSQRMKDWQEIIALYEKDNTYLVELSSLLVRNVNYEIPSLKKQIAKCQQLQQEYSRKEEECQAGAAEMREQFYHSCKQYGITGENVRGELLALVKDLPSQLAEIGAAAQQSLGEAIDVYQASVGFVCESPTEQVLPMLRFVQKRGNSTVYEWRTGTEPSVVERPHLEELPEQVAEDAIDWGDFGVEAVSEGTDSGISAEAAGIDWGIFPESDSKDPGGDGIDWGDDAVALQITVLEAGTQAPEGVARGPDALTLLEYTETRNQFLDELMELEIFLAQRAVELSEEADVLSVSQFQLAPAILQGQTKEKMVTMVSVLEDLIGKLTSLQLQHLFMILASPRYVDRVTEFLQQKLKQSQLLALKKELMVQKQQEALEEQAALEPKLDLLLEKTKELQKLIEADISKRYSGRPVNLMGTSL
In the test with GABARAP (purified), B1 showed a Kd of 20.9 µM.

In the test with HsUFM1 (purified), GPLHDDNEWNISVVDD [UBA5 LIR] displayed a Kd of 7.51 µM.

The molecule {TAMRA}-ETPEIDWDVSMVEEV [peptide derived from sAIM2 (AtC53 IDR)] displayed a Kd in the test with ATG8A (purified) of 56.8 µM.

Regarding B2, the Kd in the test with cAIM mut is 94.3 µM; in the test with sAIM3, 176 µM.

As to {TAMRA}-DLGSYEIVNASDI [peptide derived from the cAIM of the AtC53 IDR], in the test with ATG8A (purified), binding was characterised by a dissociation constant (Kd) of 62.5 µM.
